# B1: Hepsin peptide 170-178 (peptide)
# peptide: SLGRWPWQV
# notes: Synthesized peptide added to T2 cells or loaded onto LCL; also called hepsin 170-178
# Target: T1, HLA A2.1 (A*0201) (human)
# T1 construct: whole, on cells; Endogenous HLA class I molecule of T2 cells and of EBV-transformed LCL; also called HLA A0201
# Experiment: T2 cell HLA A2.1 stabilisation assay, flow cytometry
# From the text: This technique employs T2 cells which are peptide transporter-deficient and thus express low endogenous HLA class I levels due to inability to load peptide and stabilize HLA class I folding for surface expression.
binder,measurement,value
B1,binding result,binds
